B1: Cell division control protein 6 homolog (Homo sapiens), Q99741 (parent)
chain: MPQTRSQAQATISFPKRKLSRALNKAKNSSDAKLEPTNVQTVTCSPRVKALPLSPRKRLGDDNLCNTPHLPPCSPPKQGKKENGPPHSHTLKGRRLVFDNQLTIKSPSKRELAKVHQNKILSSVRKSQEITTNSEQRCPLKKESACVRLFKQEGTCYQQAKLVLNTAVPDRLPAREREMDVIRNFLREHICGKKAGSLYLSGAPGTGKTACLSRILQDLKKELKGFKTIMLNCMSLRTAQAVFPAIAQEICQEEVSRPAGKDMMRKLEKHMTAEKGPMIVLVLDEMDQLDSKGQDVLYTLFEWPWLSNSHLVLIGIANTLDLTDRILPRLQAREKCKPQLLNFPPYTRNQIVTILQDRLNQVSRDQVLDNAAVQFCARKVSAVSGDVRKALDVCRRAIEIVESDVKSQTILKPLSECKSPSEPLIPKRVGLIHISQVISEVDGNRMTLSQEGAQDSFPLQQKILVCSLMLLIRQLKIKEVTLGKLYEAYSKVCRKQQVAAVDQSECLSLSGLLEARGILGLKRNKETRLTKVFFKIEEKEIEHALKDKALIGNILATGLP

In the first test the parent is B1. As to conditions: with cdk1_human CDK1, P06493.
Sequence of cdk1_human CDK1, P06493 (P06493 whole entry, looked up): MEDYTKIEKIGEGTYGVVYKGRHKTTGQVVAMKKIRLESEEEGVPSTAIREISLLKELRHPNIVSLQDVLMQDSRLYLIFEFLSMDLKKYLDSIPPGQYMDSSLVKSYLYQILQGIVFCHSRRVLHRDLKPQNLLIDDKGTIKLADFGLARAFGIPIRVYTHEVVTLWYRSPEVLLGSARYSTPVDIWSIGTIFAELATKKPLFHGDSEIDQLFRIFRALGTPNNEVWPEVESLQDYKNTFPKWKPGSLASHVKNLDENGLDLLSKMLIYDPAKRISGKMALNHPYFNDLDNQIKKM
Turning to T37V, the “effect of a mutation on the interaction” value is “disrupting interaction”.

Variants of B1 are the subject of another test. The note with it: with plk1_human PLK1, P53350.
Sequence of plk1_human PLK1, P53350 (P53350 whole entry): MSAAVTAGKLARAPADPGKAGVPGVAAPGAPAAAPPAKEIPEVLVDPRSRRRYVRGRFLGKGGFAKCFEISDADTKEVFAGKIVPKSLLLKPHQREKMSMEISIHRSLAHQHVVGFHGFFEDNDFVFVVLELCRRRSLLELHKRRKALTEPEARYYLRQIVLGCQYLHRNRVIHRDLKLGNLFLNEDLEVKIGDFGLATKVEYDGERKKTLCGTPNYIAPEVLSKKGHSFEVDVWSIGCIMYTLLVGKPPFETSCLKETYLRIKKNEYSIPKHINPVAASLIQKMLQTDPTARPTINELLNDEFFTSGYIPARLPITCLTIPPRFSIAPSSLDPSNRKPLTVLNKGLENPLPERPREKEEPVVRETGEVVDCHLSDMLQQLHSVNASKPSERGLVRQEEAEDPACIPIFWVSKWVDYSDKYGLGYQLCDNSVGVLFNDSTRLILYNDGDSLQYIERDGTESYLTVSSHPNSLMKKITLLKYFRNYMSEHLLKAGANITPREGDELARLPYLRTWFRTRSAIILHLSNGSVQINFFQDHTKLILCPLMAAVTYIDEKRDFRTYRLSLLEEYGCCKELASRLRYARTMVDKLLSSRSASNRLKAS
In the case of T37V, the “effect of a mutation on the interaction” value was “disrupting interaction”.

(Values after IntAct's records for PubMed 21041660.)
